The target in assay [1] is Human CD16B (NA2) on NK92mi/CD16B (NA2) cells (human) (UniProt O75015). The experiment in a line: flow cytometry on NK92mi/CD16B(NA2) cells, anti-human IgG Fc detection.
For assay [2], the target named is Human CD16A (V158) on NK92mi/CD16A V158 cells (human) (UniProt P08637). As to the kind of experiment: flow cytometry on NK92mi/CD16A V158 cells, anti-human IgG Fc detection.
Assay [3] has as its target Human CD16B (NA1) on NK92mi/CD16B (NA1) cells (human) (UniProt O75015). The experiment in a line: flow cytometry on NK92mi/CD16B(NA1) cells, anti-human IgG Fc detection.
Another assay has as its target T1, human CD16B-His6 (SH) (human, UniProt O75015 17-200).
T1 construct: Bought ECD fragment (Sino Biologics); also called CD16B SH allotype; human CD16B (SH); not shown: six-histidine tag
The experiment in a line: antigen ELISA, coated human CD16B-His6 (SH), HRP anti-human IgG.

Sequence of Human CD16B (NA2) on NK92mi/CD16B (NA2) cells (human) (O75015 17-200 N65S limits assumed): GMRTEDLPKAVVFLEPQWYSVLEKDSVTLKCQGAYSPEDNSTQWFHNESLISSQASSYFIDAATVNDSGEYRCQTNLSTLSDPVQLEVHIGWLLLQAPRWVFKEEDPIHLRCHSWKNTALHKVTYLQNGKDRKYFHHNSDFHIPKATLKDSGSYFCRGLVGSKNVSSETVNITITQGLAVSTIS
Sequence of Human CD16A (V158) on NK92mi/CD16A V158 cells (human) (P08637 17-254 F176V limits assumed): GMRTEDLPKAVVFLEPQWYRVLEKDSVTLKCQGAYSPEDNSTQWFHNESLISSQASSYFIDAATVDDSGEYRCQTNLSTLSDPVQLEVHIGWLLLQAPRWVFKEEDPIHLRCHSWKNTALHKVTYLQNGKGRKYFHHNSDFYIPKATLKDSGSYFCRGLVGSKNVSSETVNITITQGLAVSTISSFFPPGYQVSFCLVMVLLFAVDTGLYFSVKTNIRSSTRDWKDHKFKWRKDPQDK
Sequence of Human CD16B (NA1) on NK92mi/CD16B (NA1) cells (human) (O75015 other isoform, or with tags, fused parts or gaps limits assumed): as the sequence (O75015 17-200 N65S limits assumed) above, with S20R, S49N, N66D, I90V counted along it
T1 sequence (O75015 17-200): as the sequence (O75015 17-200 N65S limits assumed) above, with S49N counted along it
Protocol for human CD16B-His6 (SH): For antigen ELISA, a Maxisorp immunoplate was coated with antigens (human CD16A (V158), human CD16A (F158), human CD16B (NA1), human CD16B (NA2), human CD16B (SH), or cyno CD16) and blocked with 3% BSA (w/v) in PBS buffer (blocking buffer). Monoclonal VHH-Fc antibodies were blocked with blocking buffer for 30 min and added to wells of the ELISA plate for 1 h.

On to Human IgG (antibody), for which the 50% effective concentration (EC50) in assay [1] was 0.314 µg/mL; in assay [2], 0.0112 µg/mL; in assay [3] it was 10.3 µg/mL. In addition, the EMAX in assay [1] worked out at 7.66; in assay [2], 7.55; in assay [3] it was 7.46.

B1: LS21 (scFv)
scFv: EVQLVQSGAEVKKPGESLKVSCKASGYTFTSYYMHWVRQAPGQGLEWMGIINPSGGSTSYAQKFQGRVTMTRDTSTSTVYMELSSLRSEDTAVYYCARGSAYYYDFADYWGQGTLVTVSSGGGGSGGGGSGGGGSQPVLTQPSSVSVAPGQTATISCGGHNIGSKNVHWYQQRPGQSPVLVIYQDNKRPSGIPERFSGSNSGNTATLTISGTQAMDEADYYCQVWDNYSVLFGGGTKLTVL
notes: also called positive control
Turning to B1, the binding result in the assay with human CD16B-His6 (SH) is recorded as “no binding (tested: 1 ug/ml)”.

The values are drawn from patent US20260008853A1 (BEONE MEDICINES I, published 2026).
